# Test results: patent US20240158831A1 (PROMEGA, published 2024)
# Changes are numbered by the printed parent chain. In names and notes the source's numbering stands.
# B1: OgLuc variant C1+A4E, HQHQHQ N-terminally tagged (enzyme)
# chain: HQHQHQMVFTLEDFVGDWRQTAGYNQDQVLEQGGLSSLFQKLGVSVTPIQKIVLSGENGLKFDIHVIIPYEGLSGFQMGLIEMIFKVVYPVDDHHFKIILHYGTLVIDGVTPNMIDYFGRPYEGIAVFDGKKITVTGTLWNGNKIIDERLINPDGSLLFRVTINGVTGWRLCERILA
# notes: Purified from E. coli KRX with the HISLINK system
# B2: OgLuc variant 9B8, HQHQHQ N-terminally tagged (enzyme)
# chain: B1 chain with Q26L, F62I, F76Y, L80Q, M83K, I98V
# notes: as for B1
# B3: OgLuc variant L27V (9B8 opt+K33N+L27V+T39T+K43R+Y68D) (enzyme)
# chain: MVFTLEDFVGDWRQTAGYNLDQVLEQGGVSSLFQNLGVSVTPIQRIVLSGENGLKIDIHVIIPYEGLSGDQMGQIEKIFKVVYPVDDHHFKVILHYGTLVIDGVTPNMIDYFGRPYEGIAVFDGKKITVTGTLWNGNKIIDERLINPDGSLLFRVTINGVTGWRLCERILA
# notes: Expressed as a HaloTag fusion (pFN18A) in E. coli KRX and purified with the HaloTag Protein Purification System; It eluted as a 24 kDa protein
# Biological target: the molecule itself
# Test: gel filtration chromatography (Superdex 200 5/150 GL), self-association
# Source text: Gel filtration analysis was used to verify the expected molecular weight of the purified OgLuc proteins based on the theoretical values and consequently to determine their oligomeric state. A comparison between the relative hydrodynamic volume of the OgLuc variants C1+A4E and 9B8 was made by gel filtration chromatography. For this analysis, the nucleotide sequence for the OgLuc variants, C1+A4E and 9B8, were cloned into a HQ-Tagged FLEXI® Vector (Promega Corp.) to create a HQHQHQ N-terminally tagged protein that was overexpressed in E. coli KRX cells. The overexpressed proteins were purified using the HISLINK™ Protein Purification System (Promega Corp.) according to manufacturer's instructions. Samples of each individual standard and sample protein were analyzed by gel filtration chromatography, which was performed at 24° C. on an Agilent 1200 HPLC, using a Superdex 200 5/150 GL column (GE Healthcare) with a flow rate of 0.25 mL/min (FIGS. 43A-B). The mobile phase (i.e., running buffer) consisted of 50 mM Tris and 150 mM NaCl, pH 7.5. Protein elution was monitored at 214 and 280 nm. A standard calibration curve was generated using: 1) Ovalbumin, 43 kDa (GE Healthcare), 2) Carbonic Anhydrase, 29 kDa (Sigma) and 3) Myoglobin, 17 kDa (Horse Heart, Sigma). The molecular weights of the purified proteins were calculated directly from the calibration curve.
# The relative hydrodynamic volume of the L27V variant was made by gel filtration chromatography. For this analysis, the nucleotide sequence for the L27V variant was cloned into a HaloTag® vector pFN18A (Promega Corp.) to create a HaloTag®-terminally tagged protein that was overexpressed in E. coli KRX cells (Promega Corp.). The overexpressed protein was purified using the HaloTag® Protein Purification System (Promega Corp.) according to manufacturer's instructions. Samples of each individual standard and sample protein were analyzed by gel filtration chromatography performed at 24° C. on an Agilent 1200 HPLC using a Superdex 200 5/150 GL column (GE Healthcare) with a flow rate of 0.25 mL/min (FIG. 56).
row,Protein,binding result
1,B1,binds
2,B2,no binding
3,B3,no binding
